The values below come from patent publication US9386938B2, “Methods for collagen imaging” (Collagen Medical, LLC, priority 2005, dated 2016).

Bridge positions count the residues as written; N and C are the ends. Square brackets hold non-standard residues; d marks the D form. Ends that are not written are not given here. Glu‑DTPA‑Gd = N-terminal Glu-DTPA-Gd chelate (gadolinium DTPA complex on glutamic acid); bb‑DTPA gadolinium tetramer diacid = not defined here; AEEA = NCCOCCOCC(=O)O

One series addresses T1, human collagen type I (Homo sapiens, UniProt P02452+P08123).
T1 construct: Acid soluble human collagen extracted from placenta; purchased Sigma C7774; host or cells: human placenta (tissue extract)
Description: Dried collagen assay (DCA), percent bound to dried human collagen. Type of series: binding.

The next series deals with T2, rat collagen type I (Rattus norvegicus, UniProt P02454+P02466).
T2 construct: Rat collagen (acid soluble, type I, rat tail); purchased Upstate USA, Inc 08-115; host or cells: rat tail (tissue extract)
The series can be described thus: Dried collagen assay (DCA), percent bound to dried rat collagen. Type of series: binding.

For series [1], the system named is perfused Langendorff rat heart. Description: Equilibrium binding to perfused Langendorff rat heart. The procedure: (§1) After deep anesthesia with pentobarbital (80 mg/kg ip), the chest cavity of a male Sprague Dawley rat (300 g) was opened, retracted and the heart was removed immediately and placed in an ice-cold normal Krebs-Henseleit (K-H) solution (NaCl, 118 mM; KCl, 4.7 mM; CaCl2, 2.5 mM; MgSO4, 1.2 mM; KH2PO4, 1.2 mM; NaHCO3, 25 mM; glucose, 5.5 mM). A K-H buffer filled 20 Gauge needle was inserted into the apex of the heart penetrating into the bottom of the chamber. This was attached to a pressure transducer used to record and monitor heart function. Perfusion pressure (˜60 mmHg) was monitored using a second transducer. The heart was perfused at a constant flow rate of 10-12 mL/min with 37° C. Krebs-Henseleit buffer saturated with a mixture of 95% O2 and 5% CO2 gas. The heart was paced at 300 beats/min.
Two peptide test articles, a high collagen binding peptide (SEQ ID NO: 144) and a low collagen binding peptide (SEQ ID NO: 173), are compared to GdDTPA. The appropriate test article was added to the K-H buffer solution to a total concentration of either 3 or 30 μM. Also added to the K-H buffer was a radiotracer analog of each peptide or GdDTPA. For the peptides, the radiotracer was an aliquot of the appropriate 1-125 labeled peptide derivative (see Example 5 for protocol). For GdDTPA, the tracer added was Tc-99m labeled DTPA. The amount of radioactivity added to the buffer solution was 1-5 μCi.
The heart was perfused for a period of 10 minutes and the perfusion solution was recycled through the heart. The total volume of K-H buffer used was 50-60 mL. After 10 min, the heart was removed from the apparatus and any connective tissue was removed. The heart was opened, fluid in the chambers drained, and the interior blotted dry with filter paper. The heart was then weighed and the radioactivity in the heart measured with a Packard Cobra 5003 Gamma Scintillation counter. An aliquot of the K-H buffer was also weighed and counted. Studies were performed at least in duplicate.
The dual peptide gadolinium tetramer (Compound ID 803) was compared to GdDTPA. Compound ID 803 and GdDTPA were added to the K-H buffer solution to a total concentration of 3 μM. Also added to the K-H buffer was a radiotracer analog of Compound ID 803 or GdDTPA. For Compound ID 803, the radiotracer was an aliquot of the In-111 labeled compound. For GdDTPA, the tracer added was Tc-99m labeled DTPA. The amount of radioactivity added to the buffer solution was 1-5 μCi.

Series [2] concerns perfused Langendorff rat heart. Description: Washout kinetics from perfused Langendorff rat heart. As to conditions: perfusion with buffer for 10 minutes. The procedure:
as §1
A Langendorff rat heart preparation was perfused with K-H buffer at a rate of 10-12 mL/min. A one mL solution containing SEQ ID NO: 144 (300 μM), radiolabeled (I-125) SEQ ID NO: 144 (1-6 μCi), GdDTPA (300 μM), and radiolabeled (Tc-99m) DTPA (5-8 μCi) was infused into the heart at a rate of 1 mL/min. After the infusion was finished, the heart was either removed or perfusion was allowed to continue for an additional 10 minutes and then the heart was removed. The perfusion buffer was not recirculated through the heart. After removal of any connective tissue, the heart was opened, fluid in the chambers drained, and the interior blotted dry with filter paper. The heart was then weighed and the radioactivity in the heart measured with a Packard Cobra 5003 Gamma Scintillation counter. […] An aliquot of the K-H buffer was also weighed and counted. Concentration estimates were decay corrected. Studies were performed at least in duplicate.
A Langendorff rat heart preparation was perfused with K-H buffer at a rate of 10-12 mL/min. […] The heart was then weighed and the radioactivity in the heart measured with a Packard Cobra 5003 Gamma Scintillation counter. […] An aliquot of the K-H buffer was also weighed and counted. […]

The mark [3] stands for this setting: Table 2, TN-8 peptides, 5 μM peptide, PBS pH 7.4.
The mark [4] stands for this setting: Table 4, TN-10 peptides, 5 μM peptide, PBS pH 7.4.
Where [5] appears, read: Table 13, TN-10 peptides with -G- linker, alanine scanning.
Setting [6] is: Table 14, TN-6 peptides, D-amino acid scanning.
Setting [7] is: Table 15, TN-10 peptides with -G- linker, D-amino acid scanning.

T2 sequence (P02454 152-1207 limits assumed): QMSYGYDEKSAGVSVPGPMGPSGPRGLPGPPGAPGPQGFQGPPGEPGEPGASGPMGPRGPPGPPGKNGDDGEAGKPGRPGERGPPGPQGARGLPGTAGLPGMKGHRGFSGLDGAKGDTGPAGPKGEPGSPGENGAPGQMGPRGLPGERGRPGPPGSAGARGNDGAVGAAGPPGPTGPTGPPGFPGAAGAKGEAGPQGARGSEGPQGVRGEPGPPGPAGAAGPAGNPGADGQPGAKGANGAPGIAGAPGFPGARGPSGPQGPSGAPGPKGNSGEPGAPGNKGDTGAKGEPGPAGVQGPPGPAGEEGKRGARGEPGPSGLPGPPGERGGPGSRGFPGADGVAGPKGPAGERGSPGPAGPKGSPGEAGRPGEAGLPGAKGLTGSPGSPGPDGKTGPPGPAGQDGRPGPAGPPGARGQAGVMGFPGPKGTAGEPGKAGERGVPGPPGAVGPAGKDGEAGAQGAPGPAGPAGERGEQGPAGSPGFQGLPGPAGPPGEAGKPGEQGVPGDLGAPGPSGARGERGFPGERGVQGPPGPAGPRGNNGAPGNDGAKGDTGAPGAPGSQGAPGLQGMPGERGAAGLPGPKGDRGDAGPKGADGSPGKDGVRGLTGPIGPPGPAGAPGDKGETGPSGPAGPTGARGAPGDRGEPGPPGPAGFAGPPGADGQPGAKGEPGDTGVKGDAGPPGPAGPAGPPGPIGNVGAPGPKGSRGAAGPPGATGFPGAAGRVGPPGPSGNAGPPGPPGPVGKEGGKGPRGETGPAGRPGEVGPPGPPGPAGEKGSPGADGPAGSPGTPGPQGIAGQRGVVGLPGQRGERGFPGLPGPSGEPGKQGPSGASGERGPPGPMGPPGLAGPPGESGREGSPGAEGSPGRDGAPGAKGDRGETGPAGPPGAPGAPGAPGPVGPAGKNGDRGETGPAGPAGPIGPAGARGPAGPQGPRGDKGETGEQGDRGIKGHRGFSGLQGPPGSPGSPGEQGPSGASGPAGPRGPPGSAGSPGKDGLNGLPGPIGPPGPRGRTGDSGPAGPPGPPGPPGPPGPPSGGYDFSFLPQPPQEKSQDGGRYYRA
T2 sequence (P02466 86-1125 limits assumed): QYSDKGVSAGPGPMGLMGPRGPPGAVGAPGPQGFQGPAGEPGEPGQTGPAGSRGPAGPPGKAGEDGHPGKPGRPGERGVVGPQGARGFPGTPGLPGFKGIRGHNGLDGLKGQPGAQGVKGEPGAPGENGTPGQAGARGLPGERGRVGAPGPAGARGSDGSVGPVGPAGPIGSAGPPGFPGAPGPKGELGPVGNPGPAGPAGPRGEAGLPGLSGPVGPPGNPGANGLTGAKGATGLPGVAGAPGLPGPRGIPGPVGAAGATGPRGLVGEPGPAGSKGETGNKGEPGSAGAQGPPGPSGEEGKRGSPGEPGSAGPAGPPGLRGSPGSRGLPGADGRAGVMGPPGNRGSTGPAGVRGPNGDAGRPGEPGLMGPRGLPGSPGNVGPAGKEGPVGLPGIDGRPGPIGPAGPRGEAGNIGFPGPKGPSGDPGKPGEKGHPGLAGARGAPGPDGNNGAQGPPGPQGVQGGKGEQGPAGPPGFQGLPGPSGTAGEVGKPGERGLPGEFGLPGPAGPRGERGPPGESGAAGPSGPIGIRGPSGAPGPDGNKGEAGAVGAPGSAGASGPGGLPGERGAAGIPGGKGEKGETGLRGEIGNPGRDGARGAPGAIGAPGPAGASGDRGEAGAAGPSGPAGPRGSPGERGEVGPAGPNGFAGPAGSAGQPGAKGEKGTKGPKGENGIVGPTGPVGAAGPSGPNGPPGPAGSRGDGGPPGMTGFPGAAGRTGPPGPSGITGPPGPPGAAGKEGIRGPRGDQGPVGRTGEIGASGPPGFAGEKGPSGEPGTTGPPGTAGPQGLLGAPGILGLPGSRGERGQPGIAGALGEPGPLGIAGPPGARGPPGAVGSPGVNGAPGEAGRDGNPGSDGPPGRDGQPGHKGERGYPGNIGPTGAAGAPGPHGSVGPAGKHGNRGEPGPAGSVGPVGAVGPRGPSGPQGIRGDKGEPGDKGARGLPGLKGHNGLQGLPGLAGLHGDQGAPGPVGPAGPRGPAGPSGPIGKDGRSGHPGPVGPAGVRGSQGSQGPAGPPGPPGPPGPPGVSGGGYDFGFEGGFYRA
T1 sequence (P02452 162-1218 limits assumed): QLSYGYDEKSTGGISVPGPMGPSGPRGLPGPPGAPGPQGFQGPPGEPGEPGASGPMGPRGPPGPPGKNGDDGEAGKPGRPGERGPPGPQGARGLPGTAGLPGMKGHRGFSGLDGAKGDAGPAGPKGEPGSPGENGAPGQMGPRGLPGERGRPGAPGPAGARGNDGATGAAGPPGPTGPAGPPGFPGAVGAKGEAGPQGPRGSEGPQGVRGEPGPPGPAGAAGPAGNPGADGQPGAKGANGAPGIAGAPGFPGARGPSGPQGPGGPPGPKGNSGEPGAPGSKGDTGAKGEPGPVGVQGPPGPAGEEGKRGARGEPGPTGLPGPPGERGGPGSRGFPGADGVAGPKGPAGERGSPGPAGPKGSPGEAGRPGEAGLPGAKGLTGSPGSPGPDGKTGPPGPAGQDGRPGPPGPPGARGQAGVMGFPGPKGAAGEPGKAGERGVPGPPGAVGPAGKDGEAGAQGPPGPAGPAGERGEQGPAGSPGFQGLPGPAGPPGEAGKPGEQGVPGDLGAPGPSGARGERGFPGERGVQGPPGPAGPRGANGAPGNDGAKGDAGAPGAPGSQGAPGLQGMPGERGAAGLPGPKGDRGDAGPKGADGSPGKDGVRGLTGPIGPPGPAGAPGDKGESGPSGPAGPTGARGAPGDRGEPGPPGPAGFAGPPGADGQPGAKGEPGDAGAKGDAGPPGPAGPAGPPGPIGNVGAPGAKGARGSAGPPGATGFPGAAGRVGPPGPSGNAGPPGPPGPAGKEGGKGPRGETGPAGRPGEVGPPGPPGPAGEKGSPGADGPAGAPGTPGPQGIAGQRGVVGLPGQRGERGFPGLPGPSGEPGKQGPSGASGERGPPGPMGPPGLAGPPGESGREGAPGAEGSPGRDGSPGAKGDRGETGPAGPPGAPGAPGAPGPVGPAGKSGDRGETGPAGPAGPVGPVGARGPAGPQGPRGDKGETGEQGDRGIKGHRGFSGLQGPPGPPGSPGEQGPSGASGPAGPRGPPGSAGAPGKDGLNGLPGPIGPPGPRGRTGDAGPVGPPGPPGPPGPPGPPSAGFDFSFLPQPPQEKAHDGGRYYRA
T1 sequence (P08123 80-1119 limits assumed): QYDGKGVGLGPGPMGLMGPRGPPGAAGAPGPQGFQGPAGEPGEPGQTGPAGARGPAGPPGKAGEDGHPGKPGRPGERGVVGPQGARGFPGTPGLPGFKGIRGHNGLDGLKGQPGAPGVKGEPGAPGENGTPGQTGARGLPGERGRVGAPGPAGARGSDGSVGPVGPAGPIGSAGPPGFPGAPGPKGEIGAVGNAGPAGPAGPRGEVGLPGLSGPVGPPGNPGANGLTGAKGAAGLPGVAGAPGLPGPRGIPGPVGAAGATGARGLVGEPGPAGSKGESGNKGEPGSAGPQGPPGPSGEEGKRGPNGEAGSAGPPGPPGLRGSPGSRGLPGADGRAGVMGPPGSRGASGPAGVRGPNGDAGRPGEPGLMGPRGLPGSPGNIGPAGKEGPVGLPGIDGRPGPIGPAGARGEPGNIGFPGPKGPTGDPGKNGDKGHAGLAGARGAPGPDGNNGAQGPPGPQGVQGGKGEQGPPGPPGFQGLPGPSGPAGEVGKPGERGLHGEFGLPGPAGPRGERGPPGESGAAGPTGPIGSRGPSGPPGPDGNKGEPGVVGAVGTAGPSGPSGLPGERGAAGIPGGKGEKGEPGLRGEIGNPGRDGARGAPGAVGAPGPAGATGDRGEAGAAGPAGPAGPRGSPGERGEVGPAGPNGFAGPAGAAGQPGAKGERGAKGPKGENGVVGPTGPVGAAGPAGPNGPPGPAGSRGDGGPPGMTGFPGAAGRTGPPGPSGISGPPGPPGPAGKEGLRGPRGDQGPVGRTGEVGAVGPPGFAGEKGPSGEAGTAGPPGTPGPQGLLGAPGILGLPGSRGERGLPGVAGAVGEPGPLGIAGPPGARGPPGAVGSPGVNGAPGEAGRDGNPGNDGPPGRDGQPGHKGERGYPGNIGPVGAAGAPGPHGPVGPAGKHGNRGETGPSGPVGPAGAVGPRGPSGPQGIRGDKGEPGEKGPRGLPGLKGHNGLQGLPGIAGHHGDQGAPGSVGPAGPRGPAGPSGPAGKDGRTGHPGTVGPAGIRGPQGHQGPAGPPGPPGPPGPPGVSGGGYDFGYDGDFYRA
Description for human collagen type I: Peptides identified using the phage-display protocol were screened using dried collagen assays (DCA) as described in A.-D. below.
Acid soluble human collagen extracted from placenta (Sigma, cat#C7774, lot#083K375) is dissolved in 15 mM HCl (3.5 mg/ml) by vortexing and gently shaking for 3-4 hours at 4° C. The acid soluble collagen is dissolved against PBS, pH 7.4 (three buffer exchanges are used). […] Percent gelation (fibril formation) of the collagen is determined by incubating 10 μM collagen (3.3 mg/ml) at 37° C. for 6 hours. A typical percent gelation is 60%.
Description for rat collagen type I: For the final assay, a 1:10 volume of 10×PBS (100 mM NaH2PO4, 1.5 M NaCl pH 7.4) is added to the collagen solution (final 1×PBS) and incubated at 37° C. for 2 hours. The gelation is typically 90%.

For the molecule 2 (WGWCEWAQNNCWNY) [compound 2], the “Dried Human Collagen Binding” value with human collagen type I (setting [3]) was determined as 14%. On to 3 (PWWCHEMPSMCFGF) [compound 3], for which, in the series with human collagen type I (setting [3]), the “Dried Human Collagen Binding” value came out at 2%.

As for 36 (SWSCGGDHNAWKCQYS) [compound 36], the “Dried Human Collagen Binding” value with human collagen type I (setting [4]) amounted to 7%. Regarding 37 (LWNCHGTDANWKCVLN) [compound 37], the “Dried Human Collagen Binding” value with human collagen type I (setting [4]) amounted to 7%.

Take 38 (GWSCHGDAADWPCQWS) [compound 38]: the “Dried Human Collagen Binding” value with human collagen type I (setting [4]) was 6%. On to 39 (GWQCSGDASVWNCDWI) [compound 39], for which the “Dried Human Collagen Binding” value with human collagen type I (setting [4]) came to 6%. In the case of 65 (KWECVHTKGEWYCETK) [compound 65], the “Dried Human Collagen Binding” value in the series with human collagen type I (setting [4]) was 7%. For the molecule “112 (AKACSVHDEFGCLIS; disulfide 4-12 (inferred); not fully specified (C-terminus)) [compound 112]”, the “Dried Human Collagen Binding” value in the series with human collagen type I (Table 8, TN-9 peptides) is listed as 9%. Turning to “113 (FSECVWVNAYQCEYF; disulfide 4-12 (inferred); not fully specified (C-terminus)) [compound 113]”, the “Dried Human Collagen Binding” value with human collagen type I (Table 8, TN-9 peptides) is on record as 3%. In the case of “130 (WWACQKGRHDWEKCRWL; disulfide 4-14 (inferred); not fully specified (C-terminus)) [compound 130]”, the “Dried Human Collagen Binding” value with human collagen type I (Table 11, TN-11 peptides) stood at 32%. Take “137 (YHACYQAGCWAW; disulfide 4-9 (inferred); not fully specified (C-terminus)) [compound 137]”: the “% Collagen Binding Dried Rat” value with rat collagen type I (Table 12, TN-6 peptides, alanine scanning) was 7%. Regarding “142 (QWTCSADEYTWHCNYE; disulfide 4-13 (inferred); not fully specified (C-terminus)) [compound 142]”, the “% Collagen Binding Dried Rat” value with rat collagen type I (setting [5]) is listed as 6%. For “147 (QWTCSGDEYTAHCNYE; disulfide 4-13 (inferred); not fully specified (C-terminus)) [compound 147]”, the “% Collagen Binding Dried Human” value with human collagen type I (setting [5]) came to 5%. Regarding 159 (YHACYQAGCWIW) [compound 159], the “% Collagen Binding Dried Human” value with human collagen type I (setting [6]) was 7%. For 163 (YHACYQAGCWIW) [compound 163], in the series with rat collagen type I (setting [6]), the “% Collagen Binding Dried Rat” value came out at 53%. On to 165 (QWTCSGDEYTWHCNYE) [compound 165], for which the “% Collagen Binding Dried Human” value with human collagen type I (setting [7]) worked out at 2%. For the same molecule, the “% Collagen Binding Dried Rat” value in the series with rat collagen type I (setting [7]) was determined as 4%. As to 166 (QWTCSGDEYTWHCNYE) [compound 166], in the series with human collagen type I (setting [7]), the “% Collagen Binding Dried Human” value is given as 2%. Further, in the series with rat collagen type I (setting [7]), the “% Collagen Binding Dried Rat” value is 3%. Take 167 (QWTCSGDEYTWHCNYE) [compound 167]: in the series with human collagen type I (setting [7]), the “% Collagen Binding Dried Human” value was found to be 4%. For the molecule 168 (QWTCSGDEYTWHCNYE) [compound 168], the “% Collagen Binding Dried Human” value with human collagen type I (setting [7]) is recorded as 3%. The “% Collagen Binding Dried Rat” value in the series with rat collagen type I (setting [7]) was determined as 2%. Turning to 169 (QWTCSGDEYTWHCNYE) [compound 169], in the series with rat collagen type I (setting [7]), the “% Collagen Binding Dried Rat” value is given as 4%. In the case of 171 (QWTCSGDEYTWHCNYE) [compound 171], in the series with rat collagen type I (setting [7]), the “% Collagen Binding Dried Rat” value is 6%.

Turning to 173 (QWTCSGDEYTWHCNYE) [compound 173], the “% Collagen Binding Dried Human” value in the series with human collagen type I (setting [7]) worked out at 5%. Moreover, the “% Collagen Binding Dried Rat” value in the series with rat collagen type I (setting [7]) amounted to 4%. As for 174 (QWTCSGDEYTWHCNYE) [compound 174], in the series with human collagen type I (setting [7]), the “% Collagen Binding Dried Human” value is reported as 5%. With 175 (QWTCSGDEYTWHCNYE) [compound 175], the “% Collagen Binding Dried Human” value in the series with human collagen type I (setting [7]) was 2%. For the same molecule, the “% Collagen Binding Dried Rat” value with rat collagen type I (setting [7]) turned out to be 2%. Turning to 176 (QWTCSGDEYTWHCNYE) [compound 176], the “% Collagen Binding Dried Human” value in the series with human collagen type I (setting [7]) is listed as 2%. In the series with rat collagen type I (setting [7]), the “% Collagen Binding Dried Rat” value is 2%. With “190 ({Glu‑DTPA‑Gd-AEEA}-GQWTCSGDEYTWHCNY[dE]-NH2; disulfide 5-14 (inferred); also: gadolinium complex of Glu-DTPA) [compound 190]”, the “% Binding Collagen I Rat” value with rat collagen type I (Table 17, chelate conjugates) amounted to 5%.

Consider `CC(C)C[C@H](NC(=O)[C@@H]1CSSC[C@H](NC(=O)[C@H](Cc2c[nH]cn2)NC(=O)[C@H](Cc2c[nH]c3ccccc23)NC(=O)[C@H](CCC(N)=O)NC(=O)CNC(=O)CC[C@H](NC(=O)[C@H](CNC(=O)[C@@H](CN(CCN(CC(=O)O)CC(=O)O)CC(=O)O)N(CC(=O)O)CC(=O)O)NC(=O)[C@@H](CN(CCN(CC(=O)O)CC(=O)O)CC(=O)O)N(CC(=O)O)CC(=O)O)C(=O)NCCCCCCNC(=O)[C@H](CCC(=O)NCC(=O)N[C@@H](CCC(N)=O)C(=O)N[C@@H](Cc2c[nH]c3ccccc23)C(=O)N[C@@H](Cc2c[nH]cn2)C(=O)N[C@H]2CSSC[C@@H](C(=O)N[C@@H](CC(C)C)C(=O)N[C@@H](Cc3ccc(O)cc3)C(=O)NCC(N)=O)NC(=O)[C@H](Cc3ccc(O)cc3)NC(=O)[C@H](Cc3c[nH]cn3)NC(=O)[C@H](Cc3c[nH]cn3)NC(=O)[C@@H]3CCCN3C(=O)[C@H](Cc3ccccc3)NC(=O)[C@H](CO)NC(=O)[C@H]([C@@H](C)O)NC(=O)[C@H]([C@@H](C)O)NC2=O)NC(=O)[C@H](CNC(=O)[C@@H](CN(CCN(CC(=O)O)CC(=O)O)CC(=O)O)N(CC(=O)O)CC(=O)O)NC(=O)[C@@H](CN(CCN(CC(=O)O)CC(=O)O)CC(=O)O)N(CC(=O)O)CC(=O)O)C(=O)N[C@@H]([C@@H](C)O)C(=O)N[C@@H]([C@@H](C)O)C(=O)N[C@@H](CO)C(=O)N[C@@H](Cc2ccccc2)C(=O)N2CCC[C@H]2C(=O)N[C@@H](Cc2c[nH]cn2)C(=O)N[C@@H](Cc2c[nH]cn2)C(=O)N[C@@H](Cc2ccc(O)cc2)C(=O)N1)C(=O)N[C@@H](Cc1ccc(O)cc1)C(=O)NCC(N)=O` [Comp ID 803], for which the “Heart” value in series [1] (10 min recirculating perfusion, 3 μM in K-H buffer, radiotracer counting) was found to be 9.1 ± 1.8 nmol/g. In addition, in series [1] (10 min recirculating perfusion, buffer 3.0 μM), the “Heart:Buffer” value was determined as 3.02 ± 0.62. “Compound ID 803: dual peptide gadolinium tetramer; bb-DTPA tetramer diacid coupled to N-terminus of SEQ ID NO. 264 peptide ({bb‑DTPA gadolinium tetramer diacid}-GQWHCTTSFPHHYCLYG; disulfide 5-14 (inferred); not fully specified (C-terminus); printed as G-Q-W-H-C-T-T-S-F-P-H-H-Y-C-L-Y-G; reading uncertain; also: dual peptide tetramer: two peptide chains on one diacid, Gd chelated) [dual peptide gadolinium tetramer; 264 peptide]”: the “heart uptake relative to GdDTPA” value in series [1] (10 minutes) is given as “about 7 times”. Besides, in series [2], the “amount remaining in heart at 10 minutes after infusion relative to 0 minutes post infusion” value was 54%.
